Laboratory results from patent publication US20220396635A1 (UNIVERSIT T STUTTGART, published 2022).

B1: scDb/scFv-Fc (1-2)+1, trivalent bispecific anti-FAPxanti-CD3 (bispecific antibody)
chain 1: QVQLVQSGAEVKKPGASVKVSCKASGYTFTENIIHWVRQAPGQGLEWMGWFHPGSGSIKYNEKFKDRVTMTADTSTSTVYMELSSLRSEDTAVYYCARHGGTGRGAMDYWGQGTLVTVSSGGGGSDIQMTQSPSSLSASVGDRVTITCRASQDIRNYLNWYQQKPGKAPKLLIYYTSRLHSGVPSRFSGSGSGTDFTFTISSLQPEDIATYYCQQGNTLPWTFGQGTKLEIKRGGGGSGGGGSGGGGSQVQLVQSGAEVKKPGSSVKVSCKASGGTFSGYTMNWVRQAPGQGLEWMGLINPYKGVSTYNGKFKDRVTITADKSTSTAYMELSSLRSEDTAVYYCARSGYYGDSDWYFDVWGQGTLVTVSSGGGGSDIQMTQSPSSLSASVGDRVTITCRASKSVSTSAYSYMHWYQQKPGKAPKLLIYLASNLESGVPSRFSGSGSGTDFTLTISSLQPEDFATYYCQHSRELPYTFGQGTKLEIKRAAADKTHTCPPCPAPPVAGPSVFLFPPKPKDTLMISRTPEVTCVVVDVSHEDPEVKFNWYVDGVEVHNAKTKPREEQYNSTYRVVSVLTVLHQDWLNGKEYKCKVSNKGLPSSIEKTISKAKGQPREPQVCTLPPSRDELTKNQVSLSCAVKGFYPSDIAVEWESNGQPENNYKTTPPVLDSDGSFFLVSKLTVDKSRWQQGNVFSCSVMHEALHNHYTQKSLSLSPGK
chain 2: QVQLVQSGAEVKKPGASVKVSCKASGYTFTENIIHWVRQAPGQGLEWMGWFHPGSGSIKYNEKFKDRVTMTADTSTSTVYMELSSLRSEDTAVYYCARHGGTGRGAMDYWGQGTLVTVSSGGGGSGGGGSGGGGSDIQMTQSPSSLSASVGDRVTITCRASKSVSTSAYSYMHWYQQKPGKAPKLLIYLASNLESGVPSRFSGSGSGTDFTLTISSLQPEDFATYYCQHSRELPYTFGQGTKLEIKRAAADKTHTCPPCPAPPVAGPSVFLFPPKPKDTLMISRTPEVTCVVVDVSHEDPEVKFNWYVDGVEVHNAKTKPREEQYNSTYRVVSVLTVLHQDWLNGKEYKCKVSNKGLPSSIEKTISKAKGQPREPQVYTLPPCRDELTKNQVSLWCLVKGFYPSDIAVEWESNGQPENNYKTTPPVLDSDGSFFLYSKLTVDKSRWQQGNVFSCSVMHEALHNHYTQKSLSLSPGK
notes: The FAP site is hu36; also called scDbFAPxCD3-Fc(hole)Δab + scFvFAP-Fc(knob)Δab
B2: scDb/scFv-Fc (2-1)+1, trivalent bispecific anti-FAPxanti-CD3 (bispecific antibody)
chain 1: QVQLVQSGAEVKKPGSSVKVSCKASGGTFSGYTMNWVRQAPGQGLEWMGLINPYKGVSTYNGKFKDRVTITADKSTSTAYMELSSLRSEDTAVYYCARSGYYGDSDWYFDVWGQGTLVTVSSGGGGSDIQMTQSPSSLSASVGDRVTITCRASKSVSTSAYSYMHWYQQKPGKAPKLLIYLASNLESGVPSRFSGSGSGTDFTLTISSLQPEDFATYYCQHSRELPYTFGQGTKLEIKRGGGGSGGGGSQVQLVQSGAEVKKPGASVKVSCKASGYTFTENIIHWVRQAPGQGLEWMGWFHPGSGSIKYNEKFKDRVTMTADTSTSTVYMELSSLRSEDTAVYYCARHGGTGRGAMDYWGQGTLVTVGGGGSDIQMTQSPSSLSASVGDRVTITCRASQDIRNYLNWYQQKPGKAPKLLIYYTSRLHSGVPSRFSGSGSGTDFTFTISSLQPEDIATYYCQQGNTLPWTFGQGTKLEIKRAAADKTHTCPPCPAPPVAGPSVFLFPPKPKDTLMISRTPEVTCVVVDVSHEDPEVKFNWYVDGVEVHNAKTKPREEQYNSTYRVVSVLTVLHQDWLNGKEYKCKVSNKGLPSSIEKTISKAKGQPREPQVCTLPPSRDELTKNQVSLSCAVKGFYPSDIAVEWESNGQPENNYKTTPPVLDSDGSFFLVSKLTVDKSRWQQGNVFSCSVMHEALHNHYTQKSLSLSPGK
chain 2: B1 chain 2
notes: also called scDbCD3xFAP-Fc(hole)Δab + scFvFAP-Fc(knob)Δab
B3: scDb/Fab-Fc (1-2)+1, trivalent bispecific anti-FAPxanti-CD3 (bispecific antibody, human IgG1, kappa)
chain: B1 chain 1
heavy: QVQLVQSGAEVKKPGASVKVSCKASGYTFTENIIHWVRQAPGQGLEWMGWFHPGSGSIKYNEKFKDRVTMTADTSTSTVYMELSSLRSEDTAVYYCARHGGTGRGAMDYWGQGTLVTVSSASTKGPSVFPLAPSSKSTSGGTAALGCLVKDYFPEPVTVSWNSGALTSGVHTFPAVLQSSGLYSLSSVVTVPSSSLGTQTYICNVNHKPSNTKVDKKVEPKSCDKTHTCPPCPAPPVAGPSVFLFPPKPKDTLMISRTPEVTCVVVDVSHEDPEVKFNWYVDGVEVHNAKTKPREEQYNSTYRVVSVLTVLHQDWLNGKEYKCKVSNKGLPSSIEKTISKAKGQPREPQVYTLPPCRDELTKNQVSLWCLVKGFYPSDIAVEWESNGQPENNYKTTPPVLDSDGSFFLYSKLTVDKSRWQQGNVFSCSVMHEALHNHYTQKSLSLSPGK
light: DIQMTQSPSSLSASVGDRVTITCRASKSVSTSAYSYMHWYQQKPGKAPKLLIYLASNLESGVPSRFSGSGSGTDFTLTISSLQPEDFATYYCQHSRELPYTFGQGTKLEIKRRTVAAPSVFIFPPSDEQLKSGTASVVCLLNNFYPREAKVQWKVDNALQSGNSQESVTEQDSKDSTYSLSSTLTLSKADYEKHKVYACEVTHQGLSSPVTKSFNRGEC
notes: also called scDbFAPxCD3-Fc(hole)Δab + VHFAP-CH1-Fc(knob)Δab + VLFAP-CLκ
B4: scDb/Fab-Fc (2-1)+1, trivalent bispecific anti-FAPxanti-CD3 (bispecific antibody, human IgG1, kappa)
chain: B2 chain 1
heavy: B3 heavy
light: B3 light
notes: also called scDbCD3xFAP-Fc(hole)Δab + VHFAP-CH1-Fc(knob)Δab + VLFAP-CLκ

target: T1, FAP (UniProt Q12884 1-760, limits assumed); assay: flow cytometry, serial dilution on HT1080-FAP cells (FAP-expressing), PE anti-human Fc detection
T1 construct: whole, on cells; also called FAP on HT1080-FAP cells
Protocol: Binding of trivalent, bispecific fusion proteins to FAP-expressing (HT1080-FAP) cell lines was analyzed by flow cytometry. 2×10⁵ cells/well were incubated with a serial dilution of trivalent, bispecific antibodies for 1 h at 4° C. followed by detection using a PE-conjugated anti-human Fc antibody (Jackson ImmunoResearch Laboratories Inc).

**Q.** Which EC50 does the source give for B1 here?
**A.** 0.6 nM

**Q.** How did the EC50 turn out when B2 was run?
**A.** 0.3 nM

**Q.** With B3 as the binder, how does the EC50 read?
**A.** 0.5 nM

**Q.** For B4, which EC50 is on record?
**A.** 0.4 nM
